From PMC4599368 (Cell reports, 2015)

B1: EBOV NP residues 25–457 ([change]) (domain or fragment)
chain: LTAGLSVQQGIVRQRVIPVYQVNNLEEICQLIIQAFEAGVDFQESADSFLLMLCLHHAYQGDYKLFLESGAVKYLEGHGFRFEVKKRDGVKRLEELLPAVSSGKNIKRTLAAMPEEETTEANAGQFLSFASLFLPKLVVGEKACLEKVQRQIQVHAEQGLIQYPTAWQSVGHMMVIFRLMRTNFLIKFLLIHQGMHMVAGHDANDAVISNSVAQARFSGLLIVKTVLDHILQKTERGVRLHPLARTAKVKNEVNSFKAALSSLAKHGEYAPFARLLNLSGVNNLEHGLFPQLSAIALGVATAHGSTLAGVNVGEQYQQLREAATEAEKQLQQYAESRELDHLGLDDQEKKILMNFHQKKNEISFQQTNAMVTLRKERLAKLTEAITAASLPKTSGHYDDDDDIPFPGPINDDDNPGHQDDDPTDSQDTTIPDV
B2: EBOV VP35 1–168 (domain or fragment)
chain: MTTRTKGRGHTAATTQNDRMPGPELSGWISEQLMTGRIPVSDIFCDIENNPGLCYASQMQQTKPNPKTRNSQTQTDPICNHSFEEVVQTLASLATVVQQQTIASESLEQRITSLENGLKPVYDMAKTISSLNRVCAEMVAKYDLLVMTTGRATATAAATEAYWAEHGQ

Tests used:
[1] = target: B1; assay: ITC
[2] = target: the molecule itself; assay: SEC

Binder	fold reduction in binding affinity relative to NPBP [1] [fold]	also measured
GWISEQLMTGRIPVSDIFCDIE [EBOV VP35 peptide 27–48]	6.5	
B1		binding result [2]: binds
MTTRTKGRGHTAATTQNDRMPGPELSGWISEQLMTGRIPVSDIFC [EBOV VP35 peptide 1–45]	1.5	
B2		binding result [1]: binds
